Test results: patent US20230183336A1 (MODMAB THERAPEUTICS, published 2023)

Target: T1, recombinant human LRP6-Fc chimera (human, UniProt O75581 20-1370)
T1 construct: extracellular domain; also called ECD of human LRP6; not shown: Fc part of the chimera
T1 sequence (looked up): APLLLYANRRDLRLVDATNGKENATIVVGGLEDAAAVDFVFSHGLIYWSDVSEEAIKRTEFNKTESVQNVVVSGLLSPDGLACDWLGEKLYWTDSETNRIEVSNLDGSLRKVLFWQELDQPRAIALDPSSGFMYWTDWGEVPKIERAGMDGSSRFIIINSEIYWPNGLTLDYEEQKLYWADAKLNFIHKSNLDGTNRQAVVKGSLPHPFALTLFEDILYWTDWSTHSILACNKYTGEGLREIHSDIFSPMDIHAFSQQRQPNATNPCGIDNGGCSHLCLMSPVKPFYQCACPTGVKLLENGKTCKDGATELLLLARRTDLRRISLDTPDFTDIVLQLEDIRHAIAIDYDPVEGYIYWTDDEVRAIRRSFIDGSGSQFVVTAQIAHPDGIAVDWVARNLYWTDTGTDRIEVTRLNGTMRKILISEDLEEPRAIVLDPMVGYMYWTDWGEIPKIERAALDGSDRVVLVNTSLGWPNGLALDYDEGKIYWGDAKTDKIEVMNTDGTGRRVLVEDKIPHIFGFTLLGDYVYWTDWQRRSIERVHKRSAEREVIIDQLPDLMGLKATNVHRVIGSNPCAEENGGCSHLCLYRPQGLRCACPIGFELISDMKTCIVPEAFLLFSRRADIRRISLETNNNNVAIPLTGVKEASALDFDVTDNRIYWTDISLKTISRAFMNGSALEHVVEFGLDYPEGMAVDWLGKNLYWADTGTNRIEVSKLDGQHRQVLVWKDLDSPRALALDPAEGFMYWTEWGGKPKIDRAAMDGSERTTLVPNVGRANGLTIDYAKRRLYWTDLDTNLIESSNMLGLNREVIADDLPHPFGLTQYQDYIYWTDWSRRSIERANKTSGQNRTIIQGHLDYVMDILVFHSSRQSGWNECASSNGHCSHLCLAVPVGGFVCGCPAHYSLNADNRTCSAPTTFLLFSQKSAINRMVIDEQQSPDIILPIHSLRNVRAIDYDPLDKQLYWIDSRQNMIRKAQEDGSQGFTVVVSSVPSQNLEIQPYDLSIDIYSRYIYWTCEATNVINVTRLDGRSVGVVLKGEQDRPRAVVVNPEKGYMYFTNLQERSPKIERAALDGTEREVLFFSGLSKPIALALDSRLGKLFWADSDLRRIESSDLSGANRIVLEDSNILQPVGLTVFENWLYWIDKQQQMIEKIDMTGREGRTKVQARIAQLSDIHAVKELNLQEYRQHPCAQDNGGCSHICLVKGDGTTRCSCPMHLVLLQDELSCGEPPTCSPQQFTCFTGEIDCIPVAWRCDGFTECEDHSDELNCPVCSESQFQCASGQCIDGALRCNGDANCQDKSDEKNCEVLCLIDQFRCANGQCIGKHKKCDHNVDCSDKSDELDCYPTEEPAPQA
Assay: multipoint competitive ELISA, IgG1; varied competitor printed as recombinant human LRP6-Fc chimera, while paragraph 283 says 'the recombinant antigen'
Description: The full length IgG1s and the antibody fragments (Fabs) were purified and a single-point ELISA was done to determine the specificity of the antibodies. […] A multipoint competitive ELISA was used to determine the relative affinities of the antibodies to the recombinant antigen.
Table 3 reports the IC50 of LRP5 antibodies as determined by competitive ELISA. The log of the recombinant human LRP6-Fc chimera concentration (x-axis) was plotted against the OD450 reading of the antibody (y-axis). The IC50 was determined by non-linear regression analysis.

B1: LRP5-H5 (antibody, V domains shown)
VH: EVQLVESGGGLVQPGGSLRLSCAASGFNLSYSSIHWVRQAPGKGLEWVASISSSYGSTSYADSVKGRFTISADTSKNTAYLQMNSLRAEDTAVYYCARGYWAIDYWGQGTLVTVSS
VL: DIQMTQSPSSLSASVGDRVTITCRASQSVSSAVAWYQQKPGKAPKLLIYSASSLYSGVPSRFSGSRSGTDFTLTISSLQPEDFATYYCQQPVGHYGYPITFGQGTKVEIKR
notes: Fab-phage in the screen
IC50: 4.44 nM
